Tested on: MS2 coat protein
Assay: apparent KD of MS2 coat protein; designed switch direction (-1 OFF switch, 1 ON switch): -1; higher = weaker reporter binding
How it was run: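 The buffer was Tris-HCl pH 7.5 with KCl, MgCl2, BSA, DTT, tRNA and Tween-20. In it, SNAP-549-labelled MS2 coat protein was titrated in doubling steps from 0.7 or 1.5 nM to 3 µM over chip-bound RNA switches transcribed by stalled E. coli RNA polymerase on Illumina chips. Apparent KD is the per-design median over clusters of curve fits to normalised fluorescence.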

[1] = Eterna round: R95, input ligand: microRNA oligo, concentration not stated
[2] = input ligand: microRNA oligo, concentration not stated

Row | Sequence | apparent KD of MS2 coat protein [1] [nM] | apparent KD of MS2 coat protein (input ligand: FMN 200 uM) [nM] | apparent KD of MS2 coat protein (input ligand: none) [nM] | apparent KD of MS2 coat protein [2] [nM] | apparent KD of MS2 coat protein (Eterna round: R95, input ligand: FMN 200 uM) [nM] | apparent KD of MS2 coat protein (Eterna round: R95, input ligand: none) [nM]
1 | GUCACUAGAGGAUAUACAAUGGUAUAUGAUCCUAGAGACAUACAUGAGGAUCACCCAUGUAGAAGGCUAGUAUU [Exclusion 2 - 5] (puzzle: Exclusion 2) | 58.3 | – | – | – | – | –
2 | GUCAGACGAGGAUAUAAAUUUGAUAACAUGAGGAUCACCCAUGUGAUCGAUAGAUCAAAUUUAGAAGGCGUCUGAC [E5/7-A4] (Eterna round: R97, puzzle: Exclusion 5) | – | 520 | 492 | – | – | –
3 | GUCAGACGAGGAUAUAGAUUUAGAUACAUGAGGAUCACCCAUGUAUAUAUGUAUUUAGAUUUAGAAGGCGUCUGAC [E5/15-A3] (Eterna round: R97, puzzle: Exclusion 5) | – | 187 | 240 | – | – | –
4 | GUCAGACGAGGAUAUGAUUAAUAAUACAUGAGGAUCACCCAUGUAAUACUGAUCUAUGGAUCAGAAGGCGUCUGAC [E5/6-A4] (Eterna round: R97, puzzle: Exclusion 5) | – | 15 | 16.1 | – | – | –
5 | GUCAGCUCGUCAGGAUAUACAUGAGGAUCACCCAUGUGAUCAAUAGCAGCUUCGGCUGCAUUAAUGUAGAAGGGACGAGCUGAU [ENG2/5-B2] (Eterna round: R96, puzzle: Exclusion NG 2) | – | – | – | 168 | – | –
6 | GUCAGCUCGUCAGGAUAUACAUGAGGAUCACCCAUGUGGUCAAUAGCAGCUUCGGCUGCAUACAUGUAGAAGGGACGAGCUGAC [ENG2/7-B1] (Eterna round: R96, puzzle: Exclusion NG 2) | – | 18.8 | 78.2 | 6.88 | – | –
7 | GUCAGCUCGUCAGGAUAUAUAUACAUGAGGAUCACCCAUGUAAGAUCAGCACUUCGGUGCAGUAUAUAGAAGGGACGAGCUGAC [ENG2/13-B1] (Eterna round: R96, puzzle: Exclusion NG 2) | – | 40.6 | 29.1 | 13.7 | – | –
8 | GUCAGCUCGUGAGGAUAUAUUAACAUGAGGAUCACCCAUGUAAGAUCAGGCUUCGGCCAAUGUUAAUAGAAGGCACGAGCUGAC [ENG2/12-A1] (Eterna round: R96, puzzle: Exclusion NG 2) | – | 739 | 72.9 | 38.9 | – | –
9 | GUCAGGUAUCGAGGAUAUGUGAAAGGAAGUGUAACAGAAGGCGAGGGCUUGACAUGAGGAUCACCCAUGUGAAGUGAUUCGAAG [PowerStrip EXNG 1.22] (Eterna round: R96, puzzle: Exclusion NG 1) | – | 51.8 | 62.9 | 52.5 | – | –
10 | GUCAGGUAUCGAGGAUAUGUGAAAGGAAGUGUAGCAGAAGGCGAGGGCUUGACAUGAGGAUCACCCAUGUGAAGUGAUUCGAAG [17th something] (Eterna round: R96, puzzle: Exclusion NG 1) | – | 76.4 | 64.2 | 41 | – | –
11 | GUCAUCAAACAUGGGAUUAACAUGAGGAUCACCCAUGUUAACAAGUUUUUUGCUCGUCUUAUAAUAAGUUUGAUGAC [Antenna 10 - Jieux - Sensor, turn-off variant 1] (Eterna round: R97, puzzle: Sensor, turn-off variant 1) | – | 7.6 | 13 | – | – | –
12 | GUCAUCAAACAUGGGUUAAACAUGAGGAUCACCCAUGUUAUCAAGUUUUUUGCUCGUCUUAUAAUAAGUUUGAUGAC [Antenna 12 - Jieux - Sensor, turn-off variant 1] (Eterna round: R97, puzzle: Sensor, turn-off variant 1) | – | 35.7 | 41 | – | – | –
13 | GUCAUCAAUCAUGGGAUAAACAUGAGGAUCACCCAUGUAUACAAGUUUUUUGCUCGUCUUAUAAUAAGAUUGAUGAC [Antenna 5 - Jieux - Sensor, turn-off variant 1] (Eterna round: R97, puzzle: Sensor, turn-off variant 1) | – | 13.7 | 15.9 | – | – | –
14 | GUCAUCGCAGGAUAUUAGAAUUUUUACAUGAGGAUCACCCAUGUUAAUUGGGUCUAAGUCUAAGAAGGGCGAUGAA [JR_EX5_Sub012] (Eterna round: R97, puzzle: Exclusion 5) | – | 105 | 32.4 | – | – | –
15 | GUCAUGUAAGGAUAUCUUACAUGUGACUUCGGUCACUGUCGAGAGAAGGUACAUGAGGAUCACCCAUGUUCGAC [Ex4-3: 53] (puzzle: Exclusion 4) | 15.6 | – | – | – | – | –
16 | GUCAUGUUAGGAUAUCUAACAUGUGACUUCGGUCACUGUCCAGAGAAGGAACAUGAGGAUCACCCAUGUUGGAC [Ex4-3: 56] (Eterna round: R96, puzzle: Exclusion 4) | – | 16.5 | 18.3 | 13.9 | – | –
17 | GUCAUGUUAGGAUAUCUAACAUGUGACUUCGGUCACUGUCCAGAGAAGGAACAUGAGGAUCACCCAUGUUGGAC [Ex4-3: 56] (puzzle: Exclusion 4) | 13 | – | – | – | – | –

Row | Sequence | apparent KD of MS2 coat protein [1] [nM] | apparent KD of MS2 coat protein (input ligand: FMN 200 uM) [nM] | apparent KD of MS2 coat protein (input ligand: none) [nM] | apparent KD of MS2 coat protein [2] [nM] | apparent KD of MS2 coat protein (Eterna round: R95, input ligand: FMN 200 uM) [nM] | apparent KD of MS2 coat protein (Eterna round: R95, input ligand: none) [nM]
18 | GUCAUGUUAGGAUAUGAGCGGCGACUUAGAAUGUUUGCUACUUAGAAGGAACAUGAGGAUCACCCAUGUUCUAU [EX4 C.14] (Eterna round: R97, puzzle: Exclusion 4) | – | 20.2 | 17.2 | – | – | –
19 | GUCCAGAUAGGAUAUUGUAAGGGCAACAUGAGGAUCACCCAUGUCGCAAAGAUCGCCCUUCGAGAAGGGUCCAAUU [Eternabot (L1) Solution 39] (Eterna round: R97, puzzle: Exclusion 5) | – | 15.7 | 17.6 | – | – | –
20 | GUCCUACAUGAGGAUCACCCAUGUGAGGAUAUGCGAUUAGCUGCUAGGUAGUUAGUAUGUAGAAGGCGCGUGAA [EX1 #78] (Eterna round: R97, puzzle: Exclusion 1) | – | 15.6 | 14.4 | – | – | –
21 | GUCCUGGAAUAUCAGAAGCACAUGAGGAUCACCCAUGUCAUGGGUAGAUCAAUAAAUAAAGAUACUGCUCGUCUUAU [Cac sensor turnoff var1 sub4] (Eterna round: R97, puzzle: Sensor, turn-off variant 1) | – | 837 | 228 | – | – | –
22 | GUCCUGGAUUAUCACAAGCACAUGAGGAUCACCCAUGUCAUGGGUGGAUCCCUAAAUGGGUAUUCUGCUCGUCUUAU [Cac Sensor turn off v1 sub11] (Eterna round: R97, puzzle: Sensor, turn-off variant 1) | – | 417 | – | – | – | –
23 | GUCCUUAACGAGGAUAUCGGGCGGGUUUUUGUUUGAGAAGGCGUGACAUGAGGAUCACCCAUGUGGCGCGUGGG [-24.6, -21.7 kcal, A 19%] (Eterna round: R97, puzzle: Exclusion 6) | – | 36.7 | 29.7 | – | – | –
24 | GUCGAGUGAGGAUAUGGUGAGUAGUGCCUGAGCGCUGCUCACCAGAAGGCACAUGAGGAUCACCCAUGUAUAAC [Mat - Exclusion 4 - Mod of JL - D14] (Eterna round: R96, puzzle: Exclusion 4) | – | 58.1 | 26.1 | 19.7 | – | –
25 | GUCGAGUGAGGAUAUGGUGAGUAGUGCCUGAGCGCUGCUCACCAGAAGGCACAUGAGGAUCACCCAUGUAUAAC [Mat - Exclusion 4 - Mod of JL - D14] (puzzle: Exclusion 4) | 22.3 | – | – | – | – | –
26 | GUCGAUGUCAAAGGAUAUCAGCACGAUUAGUGCUGAGAAGGUUGAACAUGAGGAUCACCCAUGUAGAUCAUUAACGACUUAAUU [ENG1/10-A2] (Eterna round: R96, puzzle: Exclusion NG 1) | – | 28.4 | 18 | 14.1 | – | –
27 | GUCGAUGUCAAAGGAUAUCAGCACGUGUAGUGCUGAGAAGGUUGAACAUGAGGAUCACCCAUGUAGAUCAUUAACGACUUAAUU [ENG1/10-A3] (Eterna round: R96, puzzle: Exclusion NG 1) | – | 56.1 | 22.9 | 20.3 | – | –
28 | GUCGUGCGGCUUUGCUGUACGAGUACAUGAGGAUCACCCAUGUAGGAUAUGGCUCGCUUUGCGUGCCAGAAGGGCGUGCGUUGG [Excl-NG3-LRO11] (Eterna round: R96, puzzle: Exclusion NG 3) | – | 43.2 | 33.6 | 25.6 | – | –
29 | GUCGUGCGGCUUUGCUGUACGAGUACAUGAGGAUCACCCAUGUAGGAUAUGGUUCGCUUUGCGUGCCAGAAGGGCGUGCGUUGU [Excl-NG3-LRO13] (Eterna round: R96, puzzle: Exclusion NG 3) | – | – | – | 18.9 | – | –
30 | GUCUAGAGAGGAUAUAUUUACACUGUACGUCGGAUGAUUGCACUUGAGGAUCACCCAAGUAGAAGGCUCGAGGG [EX2 #33] (Eterna round: R97, puzzle: Exclusion 2) | – | 130 | 112 | – | – | –
31 | GUCUCACAUGAGGAUCACCCAUGUGAGGAUAUGGUUUCGCUGGCCGUAGCCAGUGGAACCAGAAGGCGCGUGAU [Mat - Exclusion 1 - JL Mod - D18] (Eterna round: R97, puzzle: Exclusion 1) | – | 71.1 | 65 | – | – | –
32 | GUCUGCACGCUGCGGUCCUACAUGAGGAUCACCCAUGUGGUCUGGUGGCGUGGGUCACCGGACUUGGCUCGUCUUGC [salish99_S_TOV1_R5_052] (Eterna round: R97, puzzle: Sensor, turn-off variant 1) | – | 19.1 | 18.9 | – | – | –
33 | GUCUUACAUGAGGAUCACCCAUGUGAGGAUAUGGUUUCGCUGGCCGUAGCCAGUGGAACCAGAAGGCGCGUGAU [Mat - Exclusion 1 - JL Mod - D20] (Eterna round: R97, puzzle: Exclusion 1) | – | 73.1 | 72.8 | – | – | –
34 | GUGAAACAUGAGGAUCACCCAUGUGAGGAUAUGUUUAAGUAAUGAUGAAAGUAUAUAUACAGAAGGCACAAUGG [Mat - Mod of JL D72] (puzzle: Exclusion 1) | 71.5 | – | – | – | 142 | 64.4

Source: the supplement of paper PMC9170038
